Assay: label from the status in PepcDB records

Row | Sequence | protein production
1 | MSDAMPLDQTLEQLTQDEWIDIPQGWSQGRTIYGGLVAGLLMHKALSVMNDESKNLLSTSITFVGPVNEGRVRLTVEILRQGKSVTTIEARLWQDQAVQTILIASFGQPRSSEIFVLNLPEAPDYLSPEQFSRMPFVKMMPECYQQFDLRWAEGHYPMTQQAPDFGGWCRYDIQKHSPRALNVADLLILMDIWPPGVLPMFQTIAPASSLTWHLTFVRPVAYELHDWFKYQVVTQHAAFGYATEYAHLWDAQNRLIAISRQTVTVFA | failed
2 | MSLSDDSTFGDATFVVLDFETTGLDPQVDEIIEIGAVKIQGGQIVDEYHTLIKPSREISRKSSEITGITQEMLENKRSIEEVLPEFLGFLEDSIIVAHNANFDYRFLRLWIKKVMGLDWERPYIDTLALAKSLLKLRSYSLDSVVEKLGLGPFRHHRALDDARVTAQVFLRFVEMMKKEGHHHHHH | not failed
3 | MALPPILRDRLRLPVIASPLFIISNPDLVIAQCKAGIVGSFPSLNARPLSQLDEWLARITEELAAWDKANPDMPSAPFAVNQIVHKTNNRLEDDIAMCVKYKVPLVITSLGAREDVNQAIHSYGGITLHDVITDRFARKAIEKGADGLIPVAAGAGGHAGTLSPFALIQEIRQWFDGPVALSGSIASGRSILAAQAMGADLAYVGSAFIATKEANAVEGYKQMIVDSKADDILYSNLFTGVHGNYLRPSVIKAGLDPENLPESDPSKMNFGSGGNQDAKAWRDIWGCGQGIGAIDNVLTAGELVAKFAAEYEQAKAELAAKTALTAGKHLAFAAE | failed
4 | MSIRLAQVTDIPVLKELLNQIFQVHQTVRPDLFKNTDKGSKYSETELKELLQDESKPIFVYTDGKNRVLGHLFLVIKETKGSSVSKPLKTLFIDDLCVSKEARGQKIGQELFEFALKYAKKLGCYDLTLNVWNDNKGALAFYERQGLKARETKMEKILLEHHHHHH | not failed
5 | MTISWFQAALLGLFACLSSMPGLGGTTIGNYTLGRPLVGGLVCGLILGDIKTGIVCGVAMQLVYIALVTPGGTVSADVRAVSYIGIPLAMVAIHSQGLSATSSDAANLAKSMGTLVGTIGTVLFYGTATMNLVWQHIGWQAVEKREFKRLYVVDWGLPWISHIVFSFIPTLIMCKLGADAVTALKNALPMDGIPMKTLFTVGSLLPCVGIAILLKQIVEKAVDFIPFFVGFTLAASLGLNLVSCAVISLIFAVLFYELETIKNMRATASAEASDFDDDDEEDI | failed
6 | MCRVGLRAMVQERPVRVERRLSAILAADVAGYSRLMHNDEEATHAKLSALLTEAVQPAIAEHGGHIVKNTGDGFLAEFPSAVEAVRAAMQFQTSIHELTIGDVEDRRIAFRVGINIGDVIVEPHDIFGDGVNIAARLEGVAEPGGICISSSAYDQVQGKVGVEFGDLGEQNLKNIARPVRVYRMRPCNAATRPQASLLHRDTPQIGWFPNMFGGFPIRLWPALRARRARMALVIALLFVLSGGVAYWYMHQGEPQPLNHRLSIVVLPFTNLSNASEQEYFAEGITDDLSADLSRIEDSFVIAPSTARAYKNVDPKRVGRELGVRYILDGSLRRTDSLVRINARLIDARTGAEIWSERVDGDWSKSMQLQDIITGRLARRLDLELTNQESRDAEVMRPNNPDAVDLTMRGWAVLNQPYSREQLSQSRALFERALQIDPGFPKALVGLAETLAMEVNYRWTDAPADQLRRAESAVGQVLSKFPSDAMAHFVRGEIQRASGRNVEAAVGEYEAAIAINPSLAPAHGALGAAKIRVGRSAEAFAPLQMAIQLSPRDPLLSTWYFYIGHAHSHLGQYEGAIDWCGRSIAVQPLWIAYADLAAAHALTGHEREAYAAVAELRRLRPSYTVTEWLQDGKGWSDNAVFLAEFQRIADGLRKAGLPE | failed
7 | MDEIDLRILKILQYNAKYSLDEIAREIRIPKSTLSYRIKKLEKDGVIKGYYAYINPASLNLDYIVITSVKAKYGKNYHVELGNKLAQIPGVWGVYFVLGDNDFIVMARYKTREEFMEKFLERVMSIPEVERTSTQVVVKIIKESPNIVIF | not failed
8 | MKRADIKRRPLADTTLTGLEPEAKEYRELDGNGLYFRVKPDGGKSWQLRYKRPAGNWAWMGLGGYPEVSGALAREKAAELRKTISSGIDPLEQKRSAKAAIDAAKTRTFRAAADAWLKAKEEKGLAPSTLNKIRTYLDKDILPALGDKPLDEITRTDCAELQASIEARDAHNVAEKCRTWINQIFGRAIGLGLTENDPGSRLRDIAAQAPKTQQHPHLLEPELGEFLTALKNTPSRLTARTAAWLCIWTASRPGMVRLAEWKEFDLDKATWTTPAAKMKMRRDFVCPLPHQAIAALKELHCLTGRSRWLFPGVGAKNPTISENTINKVFATIGYKGRLVGHGTRHTASTLLREHGWPKEHVEAQLAHKEEGISGVYNKAQYLEQRITMMQWYADHLDALEQGKVIQGQFGKAL | failed
9 | MEIFILIGLIVLNGLFAMSEIAIVTARKSRLTALAHAGSSTAKAALKLAEDPTQFLSTVQIGITSIGILNGIFGESILAEPLSLWLQTFGLSPDVTNIFSTVLVVIIVTYVSIVIGELVPKRIGQVSAESIACIMAKPMVFLAIATKPFVWMLSGSTHALMRLMGFSHRLDDNVTQEDIQAMLQEGSSAGVIEHNEHAMVKNVFRLDERTISSLMVPRSDIVFLDLNLPLDANLRTVMQSPHSRFPVCRNNVDDMVGIISAKQLLSESIAGERLELVDLVKNCNFVPNSLSGMELLEHFRTTGSQMVFVVDEYGDLKGLVTLQDMMDALTGEFFQEDVNDQMVIKREDGSLLLDGLIPIFDLKDALGIKQLPNEEDGRYQTLNGFLMYELGKIPQTTDIVEVAGWRLEIMDMDGKRVDKVLAQKLPDAEDSEESIFVDL | failed
10 | MPDPQISAIICTHNRDTYLGAAIDSLLVQDFAGEFEVVVIDNGSSDRTREVVEQRSSDSRLKYVFEPTIGLSVARNTGAKFASAEILAYLDDDAVASTHWLQVLYAAYQNYPQLAIAGGKVTLLWPPDTQPPRWLSSGLAGNLGAYDLGDKVVYIQQPGLTPRGLNYSIRRTFLEEIGGFDPHLGRVGKNLLSNEELQMTELALTGGWQVAYLPEALVAHNVAPERLNRSWFLNRGWWQGISECYREQLSGKAGVGQLSRGGERLARGLYKAFRYFSNPAERFDNLVYAYGQIGYLNAVLQGLLFTANNKGSQLEHHHHHH | not failed
11 | MRFPVLSRFLHPDPRIRRELVELLYTSLPQVMAIGVTSVTGALALTLLGDDPGYAVITFFILVTATARVFSLMRYKARAARFTDADVVRWERLYGAGATAFGLALGALSFRALQLGDAPGAWIAFGLSMSYCVGMVSRAAIRPWIILTAAAALLMPTMIAGLMRPELAYKIGAGMLVLFWLTLREASKHLSAAFTERLEAKHRLARQATHDFLTDLPNRAGFLQALSDMAGNFTVVAIDLDGFKPINDRHGHHTGDDLLRQVAERLTTCVGADGVAARFGGDEFMLLKPVTSAEQGRDEALALARKAVFDLSMPYLLADLPVCIGASAGIAISHAALAGGNTAQLLERVDRALYVAKRAGGGCAWADGDIEPSCCPRSTPLAKDSAAA | failed
12 | MKVILVNGSPHKDGCTFTALEEVAKALNEEGIDTEFFHLGTKPLNGCIACGHCRKHQRCVFPDSVNEFLDLAQEADGFIFGSPVHYAAAGGAITSFLDRVFYTDSGSGKQAFYLKPAAAVVSARRAGTTASLDQLNRYFTIKEMPIISSKYWNMVHGNTPEEVRKDEEGLQIMRTLGRNMAWFLKCKEAGIRAGIPFPSQEEGLRTNFIRLEHHHHHH | not failed
13 | MTPSAITLCFLIFAILMFALEKLPLAVTAMIVTVGLAVTGVLPAKEAFLGFVDTNVILFVAMFVIGGALFETGMANKIGGVVSRFAKSERQLMVVLMLITGLMSGILSNTGTSAILIPVILGIAMKSDFARSRLLMPMAFASTLGGNLSLIGSPNNLVVQGVLSQTGLKFGFFEYAKIGLPLLIVGILYFVFIGYRFLPQTLNTHVKKQDYHAFHHHHNIIPKWKQWLSLCVLIATLFAMVFEEVIGIKLYISACIGALILVIMRVITEKQAYQAIDSQVVFLFAGTLALADALKRTGAGADIAHSILSLLGDHPSTTALLLTILLLSCLLTNFMSNTATAALLAPIGLSIANSLNADPRAVLMAVVIGSSCAFATPIATPANTMILSVGQYKFTDYTKAGIPLIIISVLLSMLLLPIFFPLFL | failed
14 | MKKVFITTGTEHYLRQLMENYIGENVTLLQNFSQSLLYQESTGEKLFQEGKEYRVLQSSGSLKGFGIVVFEYIQLRDEEIPIFLQMYQHASLHFSETPGLQSTKLTKAMNTNQFLIVSFWDSEVFFQEWKKTPLHKEITSIMKKNNTQVGFSHEDIYHYPEFSHDAK | not failed
15 | GRGAFGVVCKAKWRAKDVAIKQIESESERKAFIVELRQLSRVNHPNIVKLYGACLNPVCLVMEYAEGGSLYNVLHGAEPLPYYTAAHAMSWCLQCSQGVAYLHSMQPKALIHRDLKPPNLLLVAGGTVLKICDFGTACDIQTHMTNNKGSAAWMAPEVFEGSNYSEKCDVFSWGIILWEVITRRKPFDEIGGPAFRIMWAVHNGTRPPLIKNLPKPIESLMTRCWSKDPSQRPSMEEIVKIMTHLMRYFPGADEPLQYPCQYSDEGQSNSATSTGSFMDIASTNTSNKSDTNMEQVPATNDTIKRLESKLLKNQAKQQ | failed
16 | MKKIAFFIFVILFSVGIYLIWHVLLEKALELKLATSANDLLLKLLAILGVFSMLVLFQGIISSYKKRQLKRILQKIDAMNGFEFEEYSKIFFTSKGFEVSITQKSGDYGADLIIEKDGIKWAVQVKRYSHKVSPKAIQEVVSSKAYYACEKACVITNSYFTQAAQKLAQANEVLLIDRDEWVRFLNEKR | failed
17 | MKDLIIVGAGGFGREVAWLVEDINNNNREWNLLGFIDENEQNHGNELNGYKVLGGFDYLNNKKNIYYVCAIGNAKVRKEIVEKKCSKYNIKPANLIHPSVIMSKKYNKMGEGCIICASNIITVNVTLGDHIIVNLDCTIGHDVVINDYVTIYPSVNVSGNCNIGECVELGTGTQVIQGNNIGDRTIVGAGSVVIRNIEGDKVAVGVPTKVIK | failed
18 | MIDAQMSERFPARINILAVNSPGSLAEITQVISANDANIQNLSFIRTAPDFTEIMIDLEVWDLKHLNRIFSQLKKAGSVSTVRRGHGLEHHHHHH | failed
19 | MNFYWFDAFILGFTLLLGLKGIINGLIKEIFGLLGIIGGVFIASKYATQAAEFIQSTFYKIENQSLAGFAGFLAILIIFWIVCLLVGNFLSRLIKLSGLGFLDRIGGFIFGGAKIFLIFAILVFCVARIDFLNDKLDNFAKNSYTLNLLKETGSFIMNQPLTENSLDHASEKLQDIVSDLNNTQKGE | failed
20 | MSLKITEVKAHALSTPIPERMRVESGAGLKLNRQMILVEVRTDEGVTGVGSPSGPYDLAVLKRAIEDVIGPQLIGEDPANINYLWHKVFHGEVSRNLGHRSVGIAAMSGVDIALWDLKGRAMNQPIYQLLGGKFHTRGVRAYASSIYWDLTPDQAADELAGWVEQGFTAAKLKVGRAPRKDAANLRAMRQRVGADVEILVDANQSLGRHDALAMLRILDEAGCYWFEEPLSIDDIEGHRILRAQGTPVRIATGENLYTRNAFNDYIRNDAIDVLQADASRAGGITEALAISASAASAHLAWNPHTFNDIITVAANLHLVAASPHPAMFEWDITHNDLMTRLASYDLKLENGLVQPPQGPGLGFEIDWDFVAAHAWKGEPAIGAGHGMKKEGHHHHHH | not failed
21 | MANKNFSLTVYDSEYMETNNKIYQENMEKKIRTISEFPDKVLLKILSLLPSKDVVATGVLSKRWRSLWKDVKTFRTSSVESLQLKINPSATNKDIQSLVNMAVARSMRELRIEMICKNFELPKSFYMFSQLETVILDKVSLMDPPPDVHLPCLKRLHLLSVNSLTNVMIFTIDVPTLRILSIDNTSGKSRPKGVHGFVINTPSLSVNVVFDNPYKFLAPLGSTQYLSLCSVTSHTTYRPAVFSFIFLDHLELCLCSAEQWNLLTRILNYAPRLRVLQLKLYHKHCVKDTKNLMGNQPDLIPKSLSSHLEILEWRQYNDTAQEREAAKYILANASGLRKATFYTESTEKHGMLKEVRMCGQRFKNMSACVK | failed
22 | MDVHQLTEQALALLLQHTGADGGAILIEVDGEIRVAASQGIGSAHTLANNDRVRSALRTERRHRVQLPEDLVVDGMLAQFRPKEVIIDPVRHKEVVLGAVVLASGQGFSAEDRNRLDVFERGLALALHNALLYDRLQTLAALDPLTGALEHHHHHH | not failed
